For one substance, EC50, cAMP-dependent luciferase reporter in GLP-1R over-expressing cells results are on record in US20200282021A1.

The assay deals with GLP-1 receptor expressed on the transgenic cell line GLP1R_cAMP/luc. The assay can be described thus: cell-based or functional assay.

Turning to Dulaglutide (TRULICITY) (Fc fusion), the EC50, cAMP-dependent luciferase reporter in GLP-1R over-expressing cells turned out to be 6.66 pM.
